US20160244511A1 (published 2016)
Where a chain is given by its changes, count along the chain named.

B1: AB-28 Fab fragment (Fab, V domains shown)
VH: QVQLQESGPGLVKPSETLSLTCAVSGYSISSGMGWGWIRQPPGKGLEWIGSIDQRGSTYYNPSLKSRVTISVDTSKNQFSLKLSSVTAADTAVYYCARDAGHGVDMDVWGKGTTVTVSS
VL: DIQMTQSPSSVSASVGDRVTITCRASQGISRWLAWYQQKPGKAPKLLIYAASSLQSGVPSRFSGSGSGTDFTLTISSLQPEDFATYYCQQGYVFPLTFGGGTKVEIK
B2: AB-28-3 Fab (Fab, V domains shown)
VH: B1 VH with I52V, V104A
VL: B1 VL
B3: AB-28-9 Fab (Fab, V domains shown)
VH: B1 VH with Q1E, K13R, G103A
VL: B1 VL
B4: AB-28-7 Fab (Fab, V domains shown)
VH: B1 VH with G36D, L46R, K65E, S66G, V68A
VL: B1 VL
B5: AB-28-6 Fab (Fab, V domains shown)
VH: B1 VH with K13R, G103A
VL: B1 VL
B6: AB-28-8 Fab (Fab, V domains shown)
VH: B1 VH with G36D, S63P, K65E
VL: B1 VL

How the values were obtained:
[1] = target: T1, HlgB, F-component of gamma-hemolysin, USA300 TCH1516 strain (Staphylococcus aureus USA300 TCH1516, UniProt P0A075 26-325); experiment: MSD solution equilibrium, Fab with biotinylated antigen (or ForteBio)
T1 sequence: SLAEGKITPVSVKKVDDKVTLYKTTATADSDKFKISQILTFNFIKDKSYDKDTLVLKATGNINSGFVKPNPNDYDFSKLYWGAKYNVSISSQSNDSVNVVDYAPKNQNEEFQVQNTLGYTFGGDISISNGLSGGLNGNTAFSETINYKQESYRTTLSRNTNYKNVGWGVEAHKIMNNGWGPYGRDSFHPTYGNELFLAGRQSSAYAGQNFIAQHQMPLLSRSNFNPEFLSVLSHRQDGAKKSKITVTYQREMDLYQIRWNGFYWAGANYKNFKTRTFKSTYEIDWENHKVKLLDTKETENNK

[2] = target: T2, LukD, F-component of LukED, USA300 TCH1516 strain (Staphylococcus aureus USA300 TCH1516, UniProt Q2FXB1 27-327); experiment: as above
T2 sequence: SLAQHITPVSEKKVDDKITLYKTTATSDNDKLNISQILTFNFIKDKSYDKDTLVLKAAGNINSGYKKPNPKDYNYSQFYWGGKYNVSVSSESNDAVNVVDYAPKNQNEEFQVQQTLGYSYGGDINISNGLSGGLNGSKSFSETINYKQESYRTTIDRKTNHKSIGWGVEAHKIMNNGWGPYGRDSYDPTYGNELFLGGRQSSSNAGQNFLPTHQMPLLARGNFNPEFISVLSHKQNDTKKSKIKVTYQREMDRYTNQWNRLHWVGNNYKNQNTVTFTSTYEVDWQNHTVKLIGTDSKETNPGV

[3] = target: T3, LukF, F-component of Panton Valentine leukocidin (LukSF), USA300 TCH1516 strain (Staphylococcus aureus USA300 TCH1516); experiment: as above
T3 chain: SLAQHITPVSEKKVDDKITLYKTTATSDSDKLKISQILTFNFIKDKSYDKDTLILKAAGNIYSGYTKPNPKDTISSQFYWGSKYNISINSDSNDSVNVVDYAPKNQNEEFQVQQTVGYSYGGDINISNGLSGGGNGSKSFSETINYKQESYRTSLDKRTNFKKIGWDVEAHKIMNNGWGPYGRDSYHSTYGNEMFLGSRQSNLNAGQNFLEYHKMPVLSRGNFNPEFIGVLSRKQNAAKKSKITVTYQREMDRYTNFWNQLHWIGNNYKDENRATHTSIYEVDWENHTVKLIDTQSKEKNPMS

[4] = target: T1, HlgB, F-component of gamma-hemolysin, …; experiment: MSD solution equilibrium, Fab with biotinylated antigen
[5] = target: T2, LukD, F-component of LukED, USA300 …; experiment: as above
[6] = target: T3, LukF, F-component of Panton Valentine …; experiment: as above

| Binder | Kd [5] [pM] | Kd [6] [pM] | also measured |
| --- | --- | --- | --- |
| B1 | – | – | Kd [1]: < 10 pM; Kd [2]: > 1000 pM; Kd [3]: > 100 pM |
| B2 | – | – | Kd [4]: < 20 pM |
| B3 | < 800 | < 55 | – |
| B4 | < 800 | < 55 | – |
| B5 | < 800 | < 55 | – |
| B6 | < 800 | < 55 | – |
